The values that follow come from publication PMC6219724.

Test [1] addresses dynamic microtubules grown from coverslip-anchored GMPCPP-stabilized seeds with purified bovine brain tubulin (bovine) (UniProt Q6B856). The test is described as follows: laser trap bead assay; protein held on streptavidin beads by biotinylated His5 antibody (60, 600, 6,500 nM); dynamic microtubules from coverslip-anchored seeds, 6 µM bovine brain tubulin; preload 0.8 ± 0.3 pN (3.3 ± 0.5 pN for Ndc80 complex), friction coefficient on the lattice, then force ramp of 0.25 pN/s until rupture of the tip attachment.

In test [2] the target is biotinylated Taxol-stabilized microtubules grown from bovine tubulin (bovine) (UniProt Q6B856). In words: single-molecule TIRF microscopy; biotinylated Taxol-stabilized microtubules tethered to the coverslip; 1.5 nM 549SNAP-tagged KKT4 in BRB80, 1 mg/ml κ-casein, 1 mM DTT, 10 µM Taxol; residence time, lattice diffusion and brightness of single particles.

As for 6HIS-KKT4 115-343 (domain or fragment), the average rupture force of tip attachments in test [1] came to 2.1 pN.
Same read-out and setting: for “charge-reversal mutant KKT4 115-343 (R123E, K132E, R154E) (domain or fragment)” the value was 1.6 pN.
“full-length charge-reversal mutant KKT4 (R123E, K132E, R154E), 549SNAP-tagged (natural protein)”: in test [2], the fold change of the average residence time against wild-type KKT4 was 2 fold shorter and the fold change of the lattice diffusion against wild-type KKT4 was 2 fold faster.
Take “full-length KKT4 fused with an N-terminal SNAP-6HIS-3FLAG tag, labeled with 549SNAP dye (natural protein)”: in test [2], the average residence time is 5.4 s and the diffusion coefficient on the microtubule lattice came out at 0.0071 µm^2/s.
